{"source": "paper PMC7885793", "about": "(Biochemistry, 2019)", "binders": {"B1": {"name": "Activated Gαq (Gαq·GDP-ALF4^−) (natural protein, murine, UniProt P21279 7-359, looked up)", "chain": "MACCLSEEAKEARRINDEIERQLRRDKRDARRELKLLLLGTGESGKSTFIKQMRIIHGSGYSDEDKRGFTKLVYQNIFTAMQAMIRAMDTLKIPYKYEHNKAHAQLVREVDVEKVSAFENPYVDAIKSLWNDPGIQECYDRRREYQLSDSTKYYLNDLDRVADPSYLPTQQDVLRVRVPTTGIIEYPFDLQSVIFRMVDVGGQRSERRKWIHCFENVTSIMFLVALSEYDQVLVESDNENRMEESKALFRTIITYPWFQNSSVILFLNKKDLLEEKIMYSHLVDYFPEYDGPQRDAQAAREFILKMFVDLNPDSDKIIYSHFTCATDTENIRFVFAAVKDTILQLNLKEYNLV"}}, "experiment_in_all_cases": "cell-based or functional assay", "key": {"PLCβ3-Δ892 ΔXY2": {"biological_target": "T1, PLCβ3-Δ892 ΔXY2 (Homo sapiens, UniProt Q01970 10-892, ΔXY2 (residues 471–584))", "T1 sequence (looked up)": "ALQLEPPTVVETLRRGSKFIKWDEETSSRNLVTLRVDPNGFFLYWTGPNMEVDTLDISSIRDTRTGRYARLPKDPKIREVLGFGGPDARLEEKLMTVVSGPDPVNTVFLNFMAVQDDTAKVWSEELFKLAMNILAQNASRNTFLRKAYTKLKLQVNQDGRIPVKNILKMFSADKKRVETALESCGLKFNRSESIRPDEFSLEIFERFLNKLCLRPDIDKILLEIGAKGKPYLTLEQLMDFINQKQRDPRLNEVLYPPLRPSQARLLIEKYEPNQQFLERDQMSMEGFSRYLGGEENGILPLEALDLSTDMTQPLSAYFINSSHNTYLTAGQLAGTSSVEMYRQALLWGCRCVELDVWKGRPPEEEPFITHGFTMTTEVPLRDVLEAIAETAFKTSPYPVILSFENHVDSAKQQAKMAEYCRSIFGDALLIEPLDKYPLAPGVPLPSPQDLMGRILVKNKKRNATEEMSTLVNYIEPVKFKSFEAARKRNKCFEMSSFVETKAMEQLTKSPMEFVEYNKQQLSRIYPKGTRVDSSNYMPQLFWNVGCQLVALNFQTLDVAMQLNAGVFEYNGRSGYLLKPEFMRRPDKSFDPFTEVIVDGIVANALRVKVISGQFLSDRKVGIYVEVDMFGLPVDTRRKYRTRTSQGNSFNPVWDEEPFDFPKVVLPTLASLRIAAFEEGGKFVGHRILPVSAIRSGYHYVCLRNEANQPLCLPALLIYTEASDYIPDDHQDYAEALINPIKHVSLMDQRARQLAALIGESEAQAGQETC"}, "PLCβ3 ΔXY2": {"biological_target": "T2, PLCβ3 ΔXY2 (Homo sapiens, UniProt Q01970 10-1234, ΔXY2 (residues 471–584))", "T2 sequence (looked up)": "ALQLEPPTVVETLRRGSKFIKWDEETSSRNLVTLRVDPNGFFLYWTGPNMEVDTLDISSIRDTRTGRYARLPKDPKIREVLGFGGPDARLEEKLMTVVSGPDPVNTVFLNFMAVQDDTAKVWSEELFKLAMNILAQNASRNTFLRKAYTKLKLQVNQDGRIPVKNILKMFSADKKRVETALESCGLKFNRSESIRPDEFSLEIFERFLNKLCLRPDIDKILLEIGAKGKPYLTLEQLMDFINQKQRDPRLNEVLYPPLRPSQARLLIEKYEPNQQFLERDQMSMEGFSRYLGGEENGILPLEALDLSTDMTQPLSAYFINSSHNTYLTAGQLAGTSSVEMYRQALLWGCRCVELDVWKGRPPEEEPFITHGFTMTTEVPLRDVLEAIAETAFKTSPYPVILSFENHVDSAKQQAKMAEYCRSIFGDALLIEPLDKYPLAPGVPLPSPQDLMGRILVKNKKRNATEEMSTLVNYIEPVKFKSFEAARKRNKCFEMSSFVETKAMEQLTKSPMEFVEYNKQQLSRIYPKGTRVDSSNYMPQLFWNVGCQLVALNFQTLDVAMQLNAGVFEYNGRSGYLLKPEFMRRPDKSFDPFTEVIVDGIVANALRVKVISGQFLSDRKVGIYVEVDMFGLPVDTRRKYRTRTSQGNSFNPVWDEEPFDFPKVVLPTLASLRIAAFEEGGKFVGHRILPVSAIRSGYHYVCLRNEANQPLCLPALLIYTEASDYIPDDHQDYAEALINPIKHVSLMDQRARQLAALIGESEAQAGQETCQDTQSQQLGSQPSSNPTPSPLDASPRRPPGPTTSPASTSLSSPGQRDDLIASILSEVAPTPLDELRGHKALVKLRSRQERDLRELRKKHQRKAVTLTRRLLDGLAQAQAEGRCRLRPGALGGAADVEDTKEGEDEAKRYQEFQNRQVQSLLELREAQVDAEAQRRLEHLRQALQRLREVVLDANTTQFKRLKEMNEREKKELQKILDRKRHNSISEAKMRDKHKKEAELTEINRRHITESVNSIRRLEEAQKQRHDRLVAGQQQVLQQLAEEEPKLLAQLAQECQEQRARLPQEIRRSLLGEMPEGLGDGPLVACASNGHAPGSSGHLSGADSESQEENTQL"}, "PLCβ3 ΔXY1": {"biological_target": "T3, PLCβ3 ΔXY1 (Homo sapiens, UniProt Q01970 10-1234, ΔXY1 (residues 471–569))", "T3 sequence (looked up)": "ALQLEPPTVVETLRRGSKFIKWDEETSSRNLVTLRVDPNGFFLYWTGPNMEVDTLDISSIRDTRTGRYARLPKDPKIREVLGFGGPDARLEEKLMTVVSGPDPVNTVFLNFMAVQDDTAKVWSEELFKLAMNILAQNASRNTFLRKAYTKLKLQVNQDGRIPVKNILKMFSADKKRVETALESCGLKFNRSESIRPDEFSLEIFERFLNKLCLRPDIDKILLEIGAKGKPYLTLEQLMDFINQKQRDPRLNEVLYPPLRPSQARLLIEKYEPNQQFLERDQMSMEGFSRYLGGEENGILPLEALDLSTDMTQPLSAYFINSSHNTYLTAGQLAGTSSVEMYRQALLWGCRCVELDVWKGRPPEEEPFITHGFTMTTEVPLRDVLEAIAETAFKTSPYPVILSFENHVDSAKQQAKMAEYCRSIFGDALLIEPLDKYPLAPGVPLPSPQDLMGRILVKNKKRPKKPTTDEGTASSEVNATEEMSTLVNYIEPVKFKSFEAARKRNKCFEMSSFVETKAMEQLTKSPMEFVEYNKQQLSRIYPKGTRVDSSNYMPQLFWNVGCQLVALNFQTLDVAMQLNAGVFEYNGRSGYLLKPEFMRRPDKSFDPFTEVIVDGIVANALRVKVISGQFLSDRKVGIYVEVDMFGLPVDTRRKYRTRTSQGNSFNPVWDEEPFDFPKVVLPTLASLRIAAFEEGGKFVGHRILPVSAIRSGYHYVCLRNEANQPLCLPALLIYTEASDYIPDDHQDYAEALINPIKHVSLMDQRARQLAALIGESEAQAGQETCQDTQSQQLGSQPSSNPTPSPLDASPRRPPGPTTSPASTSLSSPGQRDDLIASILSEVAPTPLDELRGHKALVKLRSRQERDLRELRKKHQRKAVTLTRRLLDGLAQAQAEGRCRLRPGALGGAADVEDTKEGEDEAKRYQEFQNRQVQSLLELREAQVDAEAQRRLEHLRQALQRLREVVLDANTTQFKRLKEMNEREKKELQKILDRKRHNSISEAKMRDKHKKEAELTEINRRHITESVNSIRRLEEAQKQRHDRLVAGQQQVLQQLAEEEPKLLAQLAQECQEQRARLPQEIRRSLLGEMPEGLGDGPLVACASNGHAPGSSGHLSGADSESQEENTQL"}}, "data": [{"binder": "B1", "values": [{"measurement": "x-fold maximum activity over basal (complex against the PLCβ3 variant alone)", "setting": "PLCβ3-Δ892 ΔXY2", "value": 3, "unit": "x-fold"}, {"measurement": "x-fold maximum activity over basal (complex against the PLCβ3 variant alone)", "setting": "PLCβ3 ΔXY2", "value": 2, "unit": "x-fold"}, {"measurement": "x-fold maximum activity over basal (complex against the PLCβ3 variant alone)", "setting": "PLCβ3 ΔXY1", "value": 4, "unit": "x-fold"}]}]}
